{"source": "the supplement of paper PMC12636428", "data": [{"tested_on": "Saccharomyces cerevisiae", "assay": "transcriptional activation domain activity (GFP:mCherry ratio, weighted mean of sorted bins, harmonized to initial dataset scale) (arbitrary fluorescence ratio units); higher = stronger transcriptional activation", "conditions": "beta-estradiol 1 µM; induction time 4 h", "procedure,_shortened": "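Barcoded tiles were sequenced after cells were sorted into 8 bins by GFP:mCherry ratio. Before sorting, cultures had been diluted 1:5 into SC with 1 uM beta-estradiol and held for 4 hours at 30 °C. The tiles were fused to an estradiol-inducible synthetic transcription factor and integrated at URA3 in yeast diploids carrying a GFP reporter. Activation activity is the read-weighted mean of bin median fluorescence, averaged over barcodes and linearly mapped onto the initial dataset scale, and tiles under 50 reads were left out.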", "values": [{"sequence": "EKTEKKAKAPKSPKKEKKKEASETAAAPATEEPAKEAAKEEAAPATEAPAATE", "transcriptional activation domain activity": 31300}, {"sequence": "LGNISAERHVLNTLSKIPAAQLHDALLVLPFSSLPALFTFLAIWVRKQWNVTL", "transcriptional activation domain activity": 56000}, {"sequence": "MASASLASKQSIRPHRKSRTGCSTCKRRKVKSLAVVGAGLGRSGQVTAGSPTG", "transcriptional activation domain activity": 54100}, {"sequence": "ETEGAEETSDAEGNESAGKQKKRARKSSHASSRSRTGAQNKKSTVEQKSTFRG", "transcriptional activation domain activity": 51600}, {"sequence": "WSVFFFFFFFFCLNLSVLWLWFFRLFFFFFFLCAFDVLCLPLSCPPLFRPKAT", "transcriptional activation domain activity": 48200}, {"sequence": "MSFFFFFIRYFPWLFDFWLLAFVFYCLLIPRLNIFFLSFSCFNFLVFSLLLVG", "transcriptional activation domain activity": 56000}, {"sequence": "PASPPIDRMERLHIRRTSPSPQGNYDEIRIDRARRISSSPPRRYEEVRVRHVS", "transcriptional activation domain activity": 26700}, {"sequence": "LFLKIYMLNPLHMTRFADLLYQGAILNRVFQPYESHLQYLLQWMCDYNLYGCA", "transcriptional activation domain activity": 65100}, {"sequence": "GAKGKGAEKGKSKQAEQGDGEDGGSEAEGGKRKRAARSKAKTKGKAGGAADGG", "transcriptional activation domain activity": 23300}, {"sequence": "ISICLPELRLFMYCKFLYWLEVMSLLNDLEHVKQMLKDVLGCGKMQLKVFKFT", "transcriptional activation domain activity": 62000}, {"sequence": "LNLRRPLAFGGMATLLTYLIVPIYFSGVCYRLRLTLPPFLFLILRVSFELFVL", "transcriptional activation domain activity": 67800}, {"sequence": "GTKKEEKGEKDKTETKKSKKSSKHNKVTSKKSSSKKSTRKAAISDADSSDDSS", "transcriptional activation domain activity": 35100}, {"sequence": "VFFMPSMCSGYLWISLCYLSFWTNMREWRLKRKVVWFLCLFWVFMCCLLFYLT", "transcriptional activation domain activity": 34700}, {"sequence": "VLGAAKCIPFLRWPTLHLSILLSWWDADTLVRLLKALAELHLRSITITLKIGI", "transcriptional activation domain activity": 55700}, {"sequence": "LDGSVDTSAPLDTGLFNSWMDIFQAFPFPAEGFTPDSFNDNYPIDPNQTFLTI", "transcriptional activation domain activity": 141000}, {"sequence": "TGYKKKKLGHPSEKVVERHASCEPGTRLYSQKLFGRYVLRLLFVVAYMFVKSF", "transcriptional activation domain activity": 34800}, {"sequence": "ISLLVLGCWIPFIILMEGYLQSLTFESFPYPGLYCFTSQGSHIIYLCWVLIAI", "transcriptional activation domain activity": 60200}, {"sequence": "FNLNEILPLPASDFKLNTVTNLNEIDFTNIFTKSPHPHSGSTHPRQVFDQLDD", "transcriptional activation domain activity": 51600}, {"sequence": "EGDRKGRGRGRGRDDRGPRDRNREREDRDEKNDKKRAREEGNDEKPAKNADSK", "transcriptional activation domain activity": 54500}, {"sequence": "MGLWARFICFVIVCFQITFLYCLFSCSPSFLYFQKTQPLFFTFFFSFPSFLLL", "transcriptional activation domain activity": 56800}, {"sequence": "SNEGFDYDVELKKKNIGLILAFKEHECDSDQLVAYLVYQRMKRIVWLHKLCVV", "transcriptional activation domain activity": 64600}, {"sequence": "DSLSNSNDVLNNTPNSSTSMDWLDNVIYTNRFVSGDDGSNSKTKNLDSNMFSN", "transcriptional activation domain activity": 66900}, {"sequence": "MMKVVGFLYQIYLIIYCVGWWFLLLVLFVFSFSFFFFLFFFFLFFSSTFYSLS", "transcriptional activation domain activity": 43100}, {"sequence": "LCVDVWDGFFLSPLNLVAISFLIFLPFHCWVINAPLSILCLTSIMGFPSFLFF", "transcriptional activation domain activity": 70200}, {"sequence": "ETAKIDIEKQSNGETDISVLRNHAPGTAPTEEENLEKNMAPLRKLIRLLLLNT", "transcriptional activation domain activity": 39100}, {"sequence": "GGGSAVWIFLYCVWYYFVKLQITGFLSSLLFFSYSLMACCVYGLLTGMVGFLT", "transcriptional activation domain activity": 60400}, {"sequence": "VHFIYHHSFRMRFYYFFLLSFLQAGRSIGFLIHGFWCFLLLIAFFVYPFLRFV", "transcriptional activation domain activity": 64600}, {"sequence": "MPFNLPPRAIGVATRVLEELGLFNIYKSCIDTKILCIQRFVRLFAYGGSTLVL", "transcriptional activation domain activity": 44200}, {"sequence": "KIHLVNLAQVTVFFIHRLLYGIIPLFEIATCAYYPFLVSLWHINYLLFYIVMF", "transcriptional activation domain activity": 42000}, {"sequence": "PFIIVTGLVVFVYYSYLDRIFLVLLRKLHRKALAIAYFVPLNIFIFLFIISYC", "transcriptional activation domain activity": 63700}, {"sequence": "MPALQCALLLHQVNMAFLQWNCMLYTIYHFRIIHIIILLLHMCTRTIICLLNG", "transcriptional activation domain activity": 37700}, {"sequence": "HTRSLRYGKLRNGTLVRVPPTLIVRLKSHFHSLPCGVDLVLGLNGYIWVCMHI", "transcriptional activation domain activity": 52700}, {"sequence": "EVGAKTFLAGLAGSGGSGGVYRCVIDKSRPAVWRLRKNDAPLSSFAAALLVSN", "transcriptional activation domain activity": 72500}, {"sequence": "YYPLFLGRLLPLSLLSFFVYFILFTFAFLPQLAFLYIFHGRGAWLNAIFLVLG", "transcriptional activation domain activity": 44200}, {"sequence": "MQCIFVHILLVFIINTFYLVHRLFSSSFLSSFTLFCFLYTHYSFLFFRLIHIS", "transcriptional activation domain activity": 69500}, {"sequence": "KKSSTSSTAAPKKRTPAKKSTPAPTPSPSASPEPVKPKKTSSKKAAKPVAVAE", "transcriptional activation domain activity": 25400}, {"sequence": "RCLVLFLWALDTIHFAFTSHGLYFYLVTSFGDFAVLLSPTWTILAQVYVTNLS", "transcriptional activation domain activity": 50100}, {"sequence": "FKDNPKVIETKDKVMHYNTQLRYHGLRDHQVNIRNTRRHAIALLIWRVVQMVF", "transcriptional activation domain activity": 39500}, {"sequence": "HVQIASSDVIKRVSSRVAWCLKSILTILLNVNQLEMSVLRSRVLRLIVFFLHY", "transcriptional activation domain activity": 62300}, {"sequence": "MVYMSSVNVWGLDIYYSRVSIYLFFFPSLFFLWAASMSLFPYYFLPSLFYIVL", "transcriptional activation domain activity": 26500}, {"sequence": "MTCFVCNPFLLCAKVFVFFSVSWWVVLSSLFWGCFLMYVFLLFPIKMFLRFCS", "transcriptional activation domain activity": 61000}, {"sequence": "VRSTRRSLYFWSCLTCSWGIIIHLLFILLLNFKIFENYGALVVVHFTWCIYVV", "transcriptional activation domain activity": 63300}, {"sequence": "ADDVGKWGAGLPGSAAVGGAGGGEEEEGKEKKAGGGMAARVLISEVSIKLLVP", "transcriptional activation domain activity": 33800}, {"sequence": "KVAAGANGETDGEAKTKKKSSKRVSRRRQPGEEDDEEEAEGAGEGAEKAKKNK", "transcriptional activation domain activity": 20300}, {"sequence": "LFTHLCLNPQLLRSISSVIFLPRITAPIHVYLYSILIYLQFKMLLLYTLFHIM", "transcriptional activation domain activity": 77200}, {"sequence": "RGFVVMLEGLFICGGLVIQAFLNLGLSHATGGVTWRFSLAFSCFFDLVVFFSI", "transcriptional activation domain activity": 46600}, {"sequence": "LIKKVKNEKQMYPILVCVLRLYDYVTHIMLIECQCEGIQSAFVSNQLSVKDTG", "transcriptional activation domain activity": 52700}, {"sequence": "QADYMCQYKGGLIGKHFKTLSQVMAFAVHGLVPPDVLEAWLILGRLTVLLWHT", "transcriptional activation domain activity": 49400}, {"sequence": "STVHNLVELMPLQQLCGFCCFSMRFVVFLDLLSTVVAPVIVVYIGYLIYILAY", "transcriptional activation domain activity": 56100}, {"sequence": "TLTDKCFGAFEDENAIHFHNFHVVSPKYMVILVNCLYMWDLMKTVGLRKPWSG", "transcriptional activation domain activity": 68200}, {"sequence": "MSVFILFVGCFYCMVCLFSPSYMWFFCGVISILFLIFPFLHDFQLYFFFGGGH", "transcriptional activation domain activity": 41700}, {"sequence": "SKNDSASDEEEEGDDLPSAYCTVILNHQKVFKTRTKPKNSKPFFNAGCERFIP", "transcriptional activation domain activity": 57400}, {"sequence": "NTPPAKKKRDGKKKAAAAGDMGEGEGGGKKVRKPRKDAGTKRGPNKRTAGATG", "transcriptional activation domain activity": 41100}, {"sequence": "LLNNELFQGPSLSDEVTDWFGASEDIGLEFVEPWTELIEQRYMQCGDGDNNNF", "transcriptional activation domain activity": 151000}, {"sequence": "WIVTHSHFIPTAEAGTTGEGMGEGEDRDPDTVRLAVRSLTICMRSANIAMLVG", "transcriptional activation domain activity": 53600}, {"sequence": "EDEEEEAEKAESKPPKKARKSKAEPAVDEDEPAVKPKKKATAASKKRKAESEE", "transcriptional activation domain activity": 21100}, {"sequence": "IEGPTLSDWFRIFERAFSLRELHWVYNYEDSYAMKPDRVIVLLNLWQLVAPNV", "transcriptional activation domain activity": 42800}, {"sequence": "FLHLATLKEKMGNRFRAKQSDISPEINLVLLGVLTLTVRFNPTLVSYVTTLRT", "transcriptional activation domain activity": 50600}, {"sequence": "SSNGRKSSKRRSRDKDEDEDEDEEDRKRRKRRRERERSKEKEERRSVLTGKKI", "transcriptional activation domain activity": 27200}, {"sequence": "KSNDSSAEKDTRSMVFCETEKVSYTGANFGEDAARDVHCKYLVGVYSKSQKQL", "transcriptional activation domain activity": 37900}, {"sequence": "QDAGGSGDKKGGVYVHCAMGKSRSVTCVVAYLLYRYPHRYGGTAGSSSTAQRR", "transcriptional activation domain activity": 45800}, {"sequence": "MIFMPSCCGFFISMFTTYGTLFSIRGILTYNPFFLCTFLFPFLFHGVPCLFLF", "transcriptional activation domain activity": 49700}, {"sequence": "KPEPAGEKGEGAASGGEGQSGGEGGRRRPSGRGRGRGRGRGGRGGRANRGSRG", "transcriptional activation domain activity": 38800}, {"sequence": "TPECLTKINWNVLRLSSYLSSVATSHFLELSTIIGITLIQLIWLLHPPCLLFL", "transcriptional activation domain activity": 45400}, {"sequence": "IHSMYRPFQMLTMDFMVMNLCLFSAILLGILYLFFGAFHLVFTVVYDFKLWQV", "transcriptional activation domain activity": 43200}, {"sequence": "NFLLNVSVVTRWFLFIVPVLGLLWIPGILSVTSFPNATVWSVRLLWWSIWLTV", "transcriptional activation domain activity": 63900}, {"sequence": "MSQCLGTGYPIVCLVLICVRHGAMLDIREKAVEMIFTILLTSTVKVAKKLDKH", "transcriptional activation domain activity": 49500}, {"sequence": "VIFSFLVLNFFYFSISFFLSSSFISYFHFHLSLFPFPFSFVFLIHYLFSFIVN", "transcriptional activation domain activity": 26300}, {"sequence": "MGIIIVVCVFFLFDRFSFLSCFSSFSLELIRFFIFILLTFLSFCHSPFYLFFF", "transcriptional activation domain activity": 60900}, {"sequence": "MHCSLPSGLSFGCQYALVHLLFVRRISIWGLLILQIFLGTRVFYHVFILRVVR", "transcriptional activation domain activity": 62700}, {"sequence": "YETRPHAHVQEAVLTNRLTSAALYNPGRIAVLPLVCVWRDERTVVVFVHLVLT", "transcriptional activation domain activity": 21400}, {"sequence": "NGNMIVNFFYKNIICIGCLWWFQIYCGWSSQYVFEYTYLLFWNVFWSLCPVIA", "transcriptional activation domain activity": 38800}, {"sequence": "YALIHFFRLYRSGHGPIRMFFLHIQALYNLFNLVFSWFALANLWLAFSIIIRL", "transcriptional activation domain activity": 75800}, {"sequence": "TSSTNHFYGTVVKTKDLLPIYLDVVLWMLKRDLLVTLHLRVRIVVPAELKERA", "transcriptional activation domain activity": 59600}, {"sequence": "GGGGQKRKAGAAQDDASSQQPKKKKAKKGGKGKGAQQQKQQGGASGSGGGQAS", "transcriptional activation domain activity": 31500}, {"sequence": "TGVGLGVCARHEFVLANSAVDLQRGERYANMDYCAASLLRHICLLLFIVFLYD", "transcriptional activation domain activity": 57700}, {"sequence": "CFALVVAFGISRNTLLVKAFRCIQYCLSKMSYCLATRLQCCPEYSCYIHQPGD", "transcriptional activation domain activity": 75300}, {"sequence": "LCIDDKYILIYGQEDSNHKVTVRKVTLQLFMCLINYTVRNILWWSLSGLITGF", "transcriptional activation domain activity": 38400}, {"sequence": "VKAVVICLLICETLQITFFFCATYWLLIDHFGDFNALVVITWHESVQLLAGYL", "transcriptional activation domain activity": 45200}, {"sequence": "NCVGHFTYGHFLRFLFYVDVACAYHLSMITWRVFHAMHASYWASPFTEMIFII", "transcriptional activation domain activity": 65500}, {"sequence": "VEEQKPVAEEAPVRTKVEESKVQEAPVVEAKAEVAVTAAAAVAATAAVATAAV", "transcriptional activation domain activity": 23500}, {"sequence": "SAAAAAPVAAAAAPAAASSIAPAVVGGAVGAAAIGGGAAIAASSDKAAAAAAA", "transcriptional activation domain activity": 37700}, {"sequence": "SYSLNTSLCQAFWHVTWRLTPPLAVFLPINPFLCLHLHFTCTLFFLLSLVMLQ", "transcriptional activation domain activity": 58400}]}]}
